Where “and” joins values, the source holds several entries; their conditions need not be identical. Equal entries are not always repeated. Where two headings read alike, the source gives them in different places.
Tests used:
[1] = molecular target: full length human mpl receptor expressed on 32D-mpl cells (human) (UniProt P40238); test: cell-based or functional assay
[2] = molecular target: full length human mpl receptor expressed on 32D-mpl cells (human) (UniProt P40238); test: cell-based or functional assay; remark: listed apart in the source

mpl ligand analog N38 [Thr^163, Asn^164, Thr^166] mpl ligand 1-174
In Vitro Activity (units/ml) [1]: 3900 units/ml | Specific Activity (units/ ng) [1]: 156 units/ng

mpl ligand analog N13 [Asn^53, Thr^55] mpl ligand 1-174
In Vitro Activity (units/ml) [2]: 18000 units/ml | Specific Activity (units/ ng) [2]: 269 units/ng

mpl ligand analog N10 [Asn^120, Thr^122] mpl ligand 1-174
In Vitro Activity (units/ml) [2]: 5940 units/ml and 9690 units/ml | Specific Activity (units/ ng) [2]: 291 units/ng and 288 units/ng

mpl ligand analog N22 [Asn^52, Thr^54] mpl ligand 1-174
In Vitro Activity (units/ml) [1]: 856 units/ml | Specific Activity (units/ ng) [1]: 428 units/ng

mpl ligand analog N21 [Asn^54, Ser^56] mpl ligand 1-174
In Vitro Activity (units/ml) [1]: 4380 units/ml | Specific Activity (units/ ng) [1]: 146 units/ng

mpl ligand analog N7 [Asn^82, Ala^83] mpl ligand 1-174
In Vitro Activity (units/ml) [2]: 2660 units/ml and 3080 units/ml | Specific Activity (units/ ng) [2]: 443 units/ng and 655 units/ng

mpl ligand analog N24 [Asn^57, Ser^59] mpl ligand 1-174
In Vitro Activity (units/ml) [1]: 458 units/ml | Specific Activity (units/ ng) [1]: 86 units/ng

mpl ligand analog N4 [Asn^30, Thr^32] mpl ligand 1-174
IN VITRO ACTIVITY U/mg X10E6 [2]: 6e+07 U/mg | In Vitro Activity (units/ml) [2]: 8830 units/ml | Specific Activity (units/ ng) [2]: 232 units/ng

mpl ligand analog N11 [Ser^36, Asn^38, Thr^40] mpl ligand 1-174
In Vitro Activity (units/ml) [2]: < 10 units/ml | Specific Activity (units/ ng) [2]: < 8 units/ng

human mpl ligand 1-163 (CHO)
IN VITRO ACTIVITY U/mg X10E6 [2]: 8.6e+07 U/mg

mpl ligand analog N27 [Asn^119, Ser^121] mpl ligand 1-174
In Vitro Activity (units/ml) [1]: 338 units/ml | Specific Activity (units/ ng) [1]: 75 units/ng

mpl ligand analog N29 [Asn^30, Ser^32, Asn^120, Ser^122] mpl ligand 1-174
In Vitro Activity (units/ml) [1]: 1630 units/ml | Specific Activity (units/ ng) [1]: 108 units/ng

mpl ligand analog N3 [Asn^25] mpl ligand 1-174
In Vitro Activity (units/ml) [2]: 636 units/ml | Specific Activity (units/ ng) [2]: 344 units/ng

mpl ligand 1-199 (N31)
In Vitro Activity (units/ml) [1]: 19000 units/ml | Specific Activity (units/ ng) [1]: 122 units/ng

mpl ligand analog N36 [Asn^55, Thr^57] mpl ligand 1-174
In Vitro Activity (units/ml) [1]: 5810 units/ml | Specific Activity (units/ ng) [1]: 121 units/ng

mpl ligand analog N20 [Asn^39, Ser^41] mpl ligand 1-174
In Vitro Activity (units/ml) [1]: < 10 units/ml

mpl ligand analog N15 [Asn^30, Thr^32, Asn^120, Thr^122] mpl ligand 1-174
IN VITRO ACTIVITY U/mg X10E6 [2]: 9.2e+07 U/mg | In Vitro Activity (units/ml) [2]: 6420 units/ml | Specific Activity (units/ ng) [2]: 247 units/ng | In Vitro Activity (units/ml) [1]: 7000 units/ml | Specific Activity (units/ ng) [1]: 156 units/ng

mpl ligand analog N40 (N4+N10+N36+N38 changes in mpl ligand 1-199)
In Vitro Activity (units/ml) [1]: 19700 units/ml | Specific Activity (units/ ng) [1]: 147 units/ng

mpl ligand analog N33 [Asn^30, Thr^32, Asn^120, Thr^122, Asn^55'(i), Thr^57] mpl ligand 1-174
In Vitro Activity (units/ml) [1]: 10100 units/ml | Specific Activity (units/ ng) [1]: 129 units/ng

mpl ligand analog N39 [Asn^30, Thr^32, Asn^120, Thr^122, Asn^55, Thr^57, Thr^163, Asn^164, Thr^166] mpl ligand 1-174
In Vitro Activity (units/ml) [1]: 17700 units/ml | Specific Activity (units/ ng) [1]: 139 units/ng

mpl ligand analog N23 [Asn^55'(i), Thr^57] mpl ligand 1-174
In Vitro Activity (units/ml) [1]: 1060 units/ml | Specific Activity (units/ ng) [1]: 96 units/ng

mpl ligand analog N18 [Asn^23, Ser^25] mpl ligand 1-174
In Vitro Activity (units/ml) [1]: 5 units/ml | Specific Activity (units/ ng) [1]: 2.5 units/ng

human mpl ligand 1-332 (CHO)
IN VITRO ACTIVITY U/mg X10E6 [2]: 4.1e+07 U/mg

mpl ligand analog N34 [Asn^30, Thr^32, Asn^55'(i), Thr^57, Thr^163, Asn^164] mpl ligand 1-174
In Vitro Activity (units/ml) [1]: 13500 units/ml | Specific Activity (units/ ng) [1]: 120 units/ng

mpl ligand analog N14 [Asn^58, Thr^60] mpl ligand 1-174
In Vitro Activity (units/ml) [2]: 4850 units/ml | Specific Activity (units/ ng) [2]: 271 units/ng

mpl ligand analog N25 [Asn^81, Thr^83] mpl ligand 1-174
In Vitro Activity (units/ml) [1]: 123 units/ml | Specific Activity (units/ ng) [1]: 559 units/ng

mpl ligand analog N26 [Asn^118, Ser^120] mpl ligand 1-174
In Vitro Activity (units/ml) [1]: 96 units/ml | Specific Activity (units/ ng) [1]: 106 units/ng

mpl ligand analog N30 [Thr^163, Asn^164] mpl ligand 1-174
In Vitro Activity (units/ml) [1]: 15600 units/ml | Specific Activity (units/ ng) [1]: 122 units/ng

Met-Lys-mpl ligand 1-174 (E. coli)
IN VITRO ACTIVITY U/mg X10E6 [2]: 1.3e+07 U/mg

mpl ligand 1-191 (N17)
In Vitro Activity (units/ml) [1]: 11 units/ml

mpl ligand analog N37 [Asn^56] mpl ligand 1-174
In Vitro Activity (units/ml) [1]: 4500 units/ml | Specific Activity (units/ ng) [1]: 141 units/ng

mpl ligand analog N5 [Asn^38, Thr^40] mpl ligand 1-174
In Vitro Activity (units/ml) [2]: < 10 units/ml | Specific Activity (units/ ng) [2]: < 8 units/ng

mpl ligand 1-183 (N16)
In Vitro Activity (units/ml) [1]: 9280 units/ml

mpl ligand analog N6 [Asn^86] mpl ligand 1-174
In Vitro Activity (units/ml) [2]: < 10 units/ml | Specific Activity (units/ ng) [2]: < 22 units/ng

mpl ligand analog N9 [Asn^92] mpl ligand 1-174
In Vitro Activity (units/ml) [2]: 1970 units/ml | Specific Activity (units/ ng) [2]: 188 units/ng

mpl ligand analog N35 (N4+N23+N30 changes in mpl ligand 1-199)
In Vitro Activity (units/ml) [1]: 13100 units/ml | Specific Activity (units/ ng) [1]: 76 units/ng
